Results from patent US20220041711A1.
Substitutions are numbered along the chain they refer to.

B1: humanized anti-LAIR-1 antibody Hz47H1.v4 (antibody, human IgG1, kappa, N297G, V domains shown)
VH: EVQLVESGGGLVQPGGSLRLSCAASGFTFNINAMNWVRQAPGKGLEWVARIRTKNYNYATFYADSVKDRFTISRDDSKNSLYLQMNSLKTEDTAVYYCVRDRAGFFAYWGQGTTVTVSS
VL: DIQMTQSPSSLSASVGDRVTITCLASQTIGTWLGWYQQKPGKAPKLLIYAATSLAEGVPSRFSGSGSGTDFTLTISSLQPEDFATYYCQQLYSTPLTFGGGTKVEIKR
B2: humanized anti-LAIR-1 antibody Hz62G10.v1 (antibody, human IgG1, kappa, N297G, V domains shown)
VH: EVQLVESGGGLVKPGGSLRLSCAASGFTFNINAMNWVRQAPGKGLEWVARIRTKNNNFATYYADSVKDRFTISRDDSKNTLYLQMNSLKTEDTAVYYCVRGPYFDYWGQGTLVTVSS
VL: B1 VL with G34A, E56D, L96Y
B3: anti-LAIR-1 antibody ch47H1 (antibody, V domains shown)
VH: EVQLVETGGGLVQPKGSLKLSCAASGFTFNINAMNWVRQAPGKGLEWVARIRTKNNNYATFYADSVKDRFTISRDDSQSMLYLQMNNLKTDDTAMYYCVRDRAGFFAYWGQGTPVTVSA
VL: DIQMTQSPASQSASLGESVTITCLASQTIGTWLGWYRQKPGKSPQLLIYAATSLADGVPSRFSGSGSGTKFSFKISSLQAEDFVIYYCQQLYSTPLTFGSGTKLEIK
B4: anti-LAIR-1 antibody ch62G10 (antibody, V domains shown)
VH: EVQLVETGGGLVQPKGSLKLSCATSGFTFNINAMNWVRQAPGKGLEWVARIRTKNNNFATYYADSVKDRFTISRDDSQSMLYLQMNNLKTEDTAMYYCVRGPYFDYWGQGTTLTVSS
VL: B3 VL with G34A, R37Q, S77N, I85T, L96Y, S100G
B5: anti-LAIR-1 antibody ch57D12 (antibody, V domains shown)
VH: QVQLQQSGAELARPGASVNLSCRASGYSFTSFGISWVKQRTGQGLEWIGEIYPRSDNTFYNEKFKGKATLTADKSSSTAYMELRSLTSEDSAVYFCARHFGSSSFDYWGQGTTLTVSS
VL: ENVLTQSPPIMAASLGQKVTMTCSASSSVSSIYFHWYQQKSGTSPKPLIHRASNLASGVPARFSGSGSGTSYSLTISSVEAEDDATYYCQQWSGYPLTFGGGTKLEIK

Target: cyno LAIR-1-Fc (cynomolgus monkey)
Assay: ELISA blocking: plate coated with 5 µg/mL human collagen type 1, antibody titrated, 1 µg/mL biotinylated cyno LAIR-1-Fc, streptavidin-HRP, OD650

Sequence of cyno LAIR-1-Fc (cynomolgus monkey) (chain, as listed by the source limits assumed, form in doubt): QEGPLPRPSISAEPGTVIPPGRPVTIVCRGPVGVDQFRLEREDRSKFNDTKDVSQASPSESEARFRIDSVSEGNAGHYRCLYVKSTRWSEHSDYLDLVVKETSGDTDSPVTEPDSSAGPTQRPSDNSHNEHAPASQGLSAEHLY

IC50 (read off the curve) [nM]	Binder
3	B1
3	B2
3	B3
3	B4
6	B5
